Results published in the nanobody polyreactivity screen of Harvey et al. (2022).

Test: yeast display, Sf9 membrane polyspecificity reagent, FACS + sequencing; frameworks hold sequencing errors
Procedure, shortened: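 In a synthetic yeast display library (Saccharomyces cerevisiae BJ5465), nanobody expression was induced with galactose for 36–48 hours. FACS gates were set low and high (top ~1%) using anti-HA fluorescence for expression and streptavidin fluorescence for binding of the Sf9 membrane reagent. Each polyreactivity label is drawn from the gate of origin.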

Row | Sequence | polyreactivity (PSR sort gate)
1 | QVQLVESGGGLVQAGGSLRLSCAASGRTFNVYAMGWYRQAPGKERELVASISSSDTTNYADSVKGRFTISRDNAKNTVYIQMNSLKPEDTAVYYCAADYTPDLLSKVDYWGQGTQVTVSS | low polyreactivity
2 | QVQLVESGGGLVQAGGSLRLSCAASGYILTHYAMGWYRQAPGKERELVAAITRVGNTNYADSVKGRFTISRDNAKNTVYLQMNSLKPEDTAVYYCAADGVASLFGDPPTEFDYWGQGTQVTVSS | low polyreactivity
3 | QVQLVESGGGLVQAGGSLRLSCAASGFTFKVYAMGWYRQAPGKERELVAAISKSGGSTYYADSVKGRFTISRDNAMNTVYLQMNSLKPEDTAVDYCATGGYAYVYPYDYWGQGTQVTVSS | low polyreactivity
4 | QVQHVESGGGLVQAGGSLRLSCAASGRTFFYNTMGWYRQAPGKERELVARITRGGSTYYADSVKGRFTISRDNAKNTVYLQMNSLKPEDTAVYYCAAGYWRGYLLYGFDYWGQGTQVTVSS | high polyreactivity
5 | QVQLVESGGGLVQAGGSLRLSCAASGFIFRGNAMGWYRQAPGKERELVASISRTGDTTYYADSVKGRFTISRDNAKNTVYLQMNSLKPEDTAVYYCARRSRVGYPLDSWGQGTQVTVSS | high polyreactivity
6 | QVHLVESGGGLVQAGGSLRLSCAASGRTFDVYAMGWYRQATGKERQLVATISYRSARTYYADSVKGRFTISRDNAKNTVYLQMNSLKPEDTAVYYCAAYFETWHGFGYWGQGTQVTVSS | high polyreactivity
7 | QVQLVESGGGLVQAGGSLRLSCAASGSIFEINAMGWYRQAPGKERELVAAITGSGGSTHYADSVKGRFTISRDTAKNTVYLQMNSLKPEDTAVYYCAADICYFTKYGYWGQGTQVTVSS | low polyreactivity
8 | QVQLVESGGGLVQAGGSLRLSCAASGRIFLRNAMGWYRQAPGKERELVAAISRRGATTYYADSVKGRFTISRDNAKNTVYLQMNSLKPEDTAVYYCAKRVWETDYDYWGQGTQVTVSS | high polyreactivity
9 | QVQLVESGGGLVQAGGSLRLSCAASGSTFGNAMGWYRQAPGKERELVAAISGSGSDTYYADSVKGRFTISRDNAKNTVYLQMNSLKPEDTAVYYCNTGWDPYGYDYWGQGTQVTVSS | low polyreactivity
10 | QVQLVESGGRLVQAGRSLRLSCAASGGTFQRYVMGWYRQAPGKERELVAAISRSGSTYADSVKGRFTISRDNAKNTGYLQMNSLKPEDTAVYYCNVVRYYRYYLHGYDYWGQGTQVTVSS | high polyreactivity
11 | QVQLVESGGGLVQAGGSLRLSCAASGRIFNSYAMGWSRQAPGNERELVAAISSGGSTYYADSVKGRFTISRDNAKNTVYLQMNSLKPEDTAVYYCAARIWTGRGRKLGYGYDYWGQGTQVTVSS | low polyreactivity
12 | QVQLVESGGVLVQAGGSLRLSCAASGRTYGTYAMGWYRQAPGKERELVAGINGSGGSTYYADSVKGRFTISRDNAKNTVFLQMNSLKPEDTAVYYCYKYGRRPYGLRGYWGEGTQVTVSS | high polyreactivity
13 | QVQLVESGGGLVQAGGSLRLSCAASGRTFGVNAMGWYRQAPGKERELVAAINRGGSTYYADSVKGRFTISRDNAKNTVYLQMNSLKPEDTAVYYCAAYVSAVHRNSGYWGQGTQVTVSS | low polyreactivity
14 | KVQLVESGGGFVQAGGSLRLSCAPSGSIFTWNAMGLYRQAPGKERELVAAITRGGSTYADSVKGRFTLSRDNAKNTVYLQMNSLKPEDTAVYYCNAVYGVYEFNYWGQGTQVTVSS | low polyreactivity
15 | QVQLVESGGGLVQAGGSLRLSCAASGRIFGRYAMGWYRQAPGKERELVASISTGGGGTYYADSVKGRFTISRDNAKNTVYLQMNSLKPEDTAVYYCAKAWRGFWTKYDYWGQGTQVTVSS | low polyreactivity
16 | QVQLVESGGGLVQAGGSLRVSCAASGSTFTNYAMGVYRQAPRKERELIARITYNVGRTYYADSVKGRFTISRDNAKNTVYLQMNSLKPEDTAVYYCAAGVGWRYRVRWYYYLGDYWGQVTQVTVSS | high polyreactivity
17 | QVQLVESGGGLVQAGGSLRLSCAASGFIFRYYAMGWYRQEPGKERELVAAISGSGGSKYYADSVKGRFTISRDNAKNNVYLQMNSLKQEDTAVYYFAKSYGSHRKIRTSFGYWGQGTQVTVSS | high polyreactivity
18 | QVQLVESGGGLVQAGGSLRLSCAASGYIFNKYVMGWYRQAPGKERELVAAISASGGSTYYADSVKGRFTISRDNAKNTVYLQMNSLKPEDTSVYYCAATLYRRMDYWGQGTQVTVSS | high polyreactivity
19 | QVQLVESGGGLVQAGGSLRLSCAASGSIFWWYTMGRYRQAPGKERELVAAITWNADGTYYADSVKGRFTISRDNAKNTVYLQMNSLKPEDTAVYYCAADQYYLDWGGGYDYWGQGPQVTVSS | low polyreactivity
20 | QVQLVESGGGLVQAGGSLRLSCAASGSTFHYYAMGWYRQAPGKERELVAAISKRGGSTYYADSVKGRFTISRDNAKNNVYLQMNSLKPEDTSVYYCAKTWVSYSRYHYEYWGQGTQVTVSS | high polyreactivity
21 | QVQLVESGGGLVQAGGSLRLSCAASGSIFRYNAMGWYRQAPGKERELVAAITSGDSTYYADSVKGRFTISRDNAKNTVYLQMNSLKPEDTAVYYCAVTTWANTQWEDYWGHGTQVTVSS | low polyreactivity
22 | QVQLVESGGGLVQAGGSLRLSCAASGSILTDNAMRWYRQAPGKERELVAAITSGGYTYYADSVKGRFTISRDNAKNTVYLHMNILKPEDTAVYYCNADPYTYSYGMYYWGQGTQVTVSS | low polyreactivity

Row | Sequence | polyreactivity (PSR sort gate)
23 | QDQLVESGGGLVQAGRSLRLSCAASGYTFRFNAMGWYRQAPGKEREFVAAIDFGGAGTYYADSVKGRFTISRDNAKNTVSLQMNSLKPEDTAVYYCNARDGVTTEFDYWGQGTQVNVSS | low polyreactivity
24 | QVQLVESGGGLVQAGGSLRLSCAASGGTFPYYAMGWYRQAPGKERELVADISGTDGSTYYADSVKGRFTISRDNAKNTVYLQMNSLKPEDTAVYYCAAEEVSWNGTGDYWGQGTQVTVSS | high polyreactivity
25 | QVQLVESGGGLVQAGGSLRLSCAASGSTFGVNAMGWYRPAPGKERELVAAISRSGTSTYYADSVKGRFTISRDNAKNTVYLLMNSLKPEDTAVYYCAAQYFSGYHKYGYWGQGTQVTVSS | high polyreactivity
26 | QVQLVESGGGLVQAGGSLRLSCAASGAIFVPYAMGWYRQAPGKERELVAAITYSDGSTYYADSVKGRFTISRDNAKNTVYLQMNSLKPEDTAVYYCAAEWIEFPDPVSWYYYTPYYYWGQGTQVTVSS | high polyreactivity
27 | QVQLVESGGGLVQAGGSLRLSCAASGLTFRGNVMGWYRQAPGKERELVAAISRSGNTYYADSVKGRFTISRDNAKNTVYLQMNSLKPEDTAVYYCAAQSVRWYSSFKYYYWGQGTQVTVSS | high polyreactivity
28 | QVQLVESGGGLVHAGGSLRLSCAASGSTVSYYAMGWYRQAPGKERELVAAISTRGSSTYYADSVKGRFTISRDNAKNTVYFQMNSLKPEDTAVYYCAVDQYKYDWFYDYYGYTYGYWGQGTQVTVSS | high polyreactivity
29 | QVQLLESGGGLVQAGRSLCLSCAASGSIIINAMGWYRQAPGKERELVATIRWRGGTTYYADSVKGRFTISRDNAKNTVYLQRNSLKPEDTAVYYCAADRSYYPDPRTTYGYNYWGQGTQVTVSS | low polyreactivity
30 | QVQLVESGGGLVQAGGSLRLSCAASGFTFYRYDMGWYRQAPGKERELVAAITNNGGNTYYADSVKGRFTISRDNAKNTVYLQMNSLKPEDTAVYYCATKRYYWRGYWGQGTQVTVSS | high polyreactivity
31 | QVQLVESGGGLLQEGGSLRLSCAASGRTFYYYTMGWYRQAPGIERELVAAITHGGSTYYADSVKGRFTISRDNAKNTVYLQMNSLTPEDTAVYYCNAVYHYPYEYWGHGTQVTVSS | high polyreactivity
32 | QVQLVESGGGLVQAGGSLRLSCAASGLTFGFYARGWYTQAPGKERQLVPRISNGGSTNYADSVKGRFTISRDNAKNTVYLQMNSLKPEDTAVYYCNAGLVLPPPGAYIVYFDQMDYWGQGTQVTVSS | low polyreactivity
33 | QVQLVESGGGLVQARGSLRLSCAASGFTFAFYAMGWYRQAPGKEMELVAAITGSGGSTYDADSVKGRFTISRDNAKNTVYLQLNSLKPEDTAVYYCFTRGGYYLYYSYYYWGQGTQVTVSS | high polyreactivity
34 | QVQLVESGGGLVQAGGSLRLSCAASGITFISYAMGWYRQAPGKEMELVAAISSSGGRTYYADSVKGRFTISRDNAKNTVYLQMNSLKPEDTAVYYCAADGYPEYPRYGYWGQGTQVTVSS | high polyreactivity
35 | QVQLQESGGGLVQAGGSLRLSCAASGTISYAPHMGWYRQAPGKERELVAGITIGGTTYYADIVIGRFTISRDNAKNTVFLQMNSLSPGDTAVYYCAAHSEQYTPFYYWGQGTQVTVSS | low polyreactivity
36 | QVHLVESGVGLVKAGGTLRLSCAASGGIFIRNAMGWYRQAPGKERELVATISNAGSTYADAVKGRFTISRDNAKNPVHLQMHSLKPEDTAVYYCNRDDWTYPVYQGLQEYDYWGQGTQVSVSS | low polyreactivity
37 | QVQLVESGGGLVQAGGSLRLSCAASGRILGAYAMGWYRQPPGKERELVASISSGGRTYYADSVKGRFTISRDNAKNTVYLQMNSLKPEATAVYYCAKKKQLSVPASGYDYVYYWGQGTQVTVSS | high polyreactivity
38 | QVQLVESGGGLVQAGGSLRLSCAASGRIFPGYAMGWYRQAPGKERELVAAISGGGGRTYYADSVKGRFTISRDNAKNTVYLQMNSLKPEDTAVYYCAADTTPPRGFDYWGQGTQVTVSS | high polyreactivity
39 | QVQLVESGGGLVQAGGSLRLSCAASGSTIYAMGWYRQAPGKERELVAGINRSGTRTYYADSVKGRFTISRDNAKNTVYLQMNSLKPEDTAVYYCAALVYRPTYGYIFDYWGQGTQVTVSS | high polyreactivity
40 | QVQLVESGGGLVQAGGSLRLSCAASGSIFPVYAMGWYRQAPGKERELVAAISWGGGNTYYADSVKGRFTISRDNSKNTVYLQMNSLKPEDTAVYYCNKRSRLGRGNRDYRGQGTQVTVSS | high polyreactivity
41 | QVQLVESGGGLVQAGGSLRLSCAASGRIWSRYAMGWYRQAPGKERELVAAITQSGTSTYYADSVKGRFTFSRDNAKNTVYLQMNSLKPEDTAVYYCNAYRQYRYDYWGQGTQVTVSS | low polyreactivity
42 | QVQLVESGGGLVQAGCSLRLTCAASGRTFITNAKGWYRQAPVKERELVAAISSGTGGRTNYADSVKGRFTISRDNAKNTVYLQMNSRKPEDTAVYYCAARSTKYYPYGYWGQGTQVTLSS | high polyreactivity
43 | QVQLVESGGGLVQAGGSLRLSCAPSGITLDSNAMGWYRQARGKERELVAAINWSTGSTYYADSVKGRFTISRDNAKNTVYLQMNSLKPEDTAVYYCAVDYRYGYFVYVHYEYWGQGTQETVSS | high polyreactivity
